In patent publication US7033773B1, “Screening assays for G protein coupled receptor agonists and antagonists” (The General Hospital Corporation, priority 1997, dated 2006):

How the values were obtained:
human PTH/PTHrP receptor = target: T1, human PTH/PTHrP receptor (Homo sapiens, UniProt Q03431); test: IP3 production (PLC activation) in LLC-PK1 cells expressing human PTHR; type: cell-based; set-up: transfected with a full-length human PTH/PTHrP receptor cDNA; expressed in transfected cells; conditions: for formation of IP3 (activation of phospholipase-C): peptide 1000 nM, mean±SEM
T1 sequence (Q03431 27-593): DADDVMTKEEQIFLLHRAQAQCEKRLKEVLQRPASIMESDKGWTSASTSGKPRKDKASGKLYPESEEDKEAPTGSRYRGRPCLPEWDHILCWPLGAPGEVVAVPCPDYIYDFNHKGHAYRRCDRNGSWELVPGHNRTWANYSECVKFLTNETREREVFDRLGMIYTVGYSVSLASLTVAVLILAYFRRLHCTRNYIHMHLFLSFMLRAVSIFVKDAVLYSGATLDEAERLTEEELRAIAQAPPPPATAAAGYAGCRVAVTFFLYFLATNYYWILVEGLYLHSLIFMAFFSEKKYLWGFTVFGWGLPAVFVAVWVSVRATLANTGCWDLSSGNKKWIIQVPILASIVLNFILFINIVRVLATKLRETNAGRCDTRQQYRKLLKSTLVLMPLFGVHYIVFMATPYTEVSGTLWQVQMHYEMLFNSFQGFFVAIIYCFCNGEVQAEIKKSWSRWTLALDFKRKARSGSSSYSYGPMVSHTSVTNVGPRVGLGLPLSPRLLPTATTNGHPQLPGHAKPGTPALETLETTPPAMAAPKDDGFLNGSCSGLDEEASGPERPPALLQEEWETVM
Description: Cells were seeded into 24-well plates at a density of 2.5×10^5 cells/well and cultured for a further 2 days before study. The cells were labeled at 37° C. for 16 h before assay with 3 uCi/ml of [^3H]myo-inositol in assay medium (serum- and inositol-free DMEM (GIBCO-BRL, Grand Island, N.Y.) supplemented with 0.1% BSA). After washing the cells with prewarmed assay medium containing 30 mM LiCl, they were incubated with 0.25 ml of assay medium containing 30 mM LiCl and stimulators (or vehicle) at 37° C. for various intervals(1-30 min). IP3 formation was arrested by aspiration and immediate addition of 0.5 ml of ice-cold 5% TCA. The acid extracts then were extracted twice with two volumes of water-saturated ether and adjusted to pH 7.4 with concentrated NaOH and Tris base (final concentration=10 mM) prior to chromatography on AG 1×8 anion-exchange columns (Bio-Rad, Richmond, Calif.), as previously described (Guo, J., et al., Endocrinology 136:3884-3891 (1995)). After eluting other fractions (free [^3H]myo-inositol, glycerophosphate inositol, IP1, and IP2), IP3 fractions were collected and their content of radioactivity was determined by liquid scintillation spectrometry (Beckman, model LS 6000IC).
HKRK B7 cells and HKRK B28 cells, previously loaded with [^3H]myo-inositol, were incubated with each peptide (1000 nM) for 30 min or 4 min, respectively. The formation of IP3 is expressed as a percentage of the amount measured in vehicle-treated controls. Values shown are means±SEM of triplicate determinations.

rat PTHR = target: T2, rat PTHR (Rattus norvegicus, UniProt P25961); test: Cellular cAMP accumulation in LLC-PK1 cells expressing rat PTHR; type: cell-based; conditions: EW5 cells
T2 construct: expressed in transfected cells; host or cells: LLC-PK1 porcine renal epithelial cells (EW5; also EW29, AR-C38, AR-B44)
T2 sequence (P25961 27-591): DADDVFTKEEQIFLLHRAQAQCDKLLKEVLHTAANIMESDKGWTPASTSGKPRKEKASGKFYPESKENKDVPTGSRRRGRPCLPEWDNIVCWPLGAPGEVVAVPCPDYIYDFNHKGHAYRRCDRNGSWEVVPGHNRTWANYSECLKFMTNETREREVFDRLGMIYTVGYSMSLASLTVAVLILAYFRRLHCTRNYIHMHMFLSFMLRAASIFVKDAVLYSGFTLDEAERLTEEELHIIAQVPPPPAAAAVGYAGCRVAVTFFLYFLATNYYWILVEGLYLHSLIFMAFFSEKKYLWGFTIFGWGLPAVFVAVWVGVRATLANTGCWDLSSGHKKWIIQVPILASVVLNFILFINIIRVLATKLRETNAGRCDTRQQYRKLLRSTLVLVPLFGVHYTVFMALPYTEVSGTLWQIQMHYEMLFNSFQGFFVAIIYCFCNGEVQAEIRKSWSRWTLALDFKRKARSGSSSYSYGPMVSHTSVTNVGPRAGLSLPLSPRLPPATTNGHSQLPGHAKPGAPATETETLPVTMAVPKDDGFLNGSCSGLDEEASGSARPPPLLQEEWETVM
Description: FIG. 10. Stimulation of cyclic AMP accumulation by hPTH(1-31) and hPTH(1-34) in LLC-PK1 cells that express rat PTHRs. Cyclic AMP accumulation was measured in response to hPTH(1-34) (●) or hPTH(1-31) (Δ) in EW5 cells that expressed 320,000 rat PTHRs per cell. Results are expressed as fold basal.
Cells were seeded into 24-well plates at a density of 2.5×10^5 cells/well and cultured for a further 2 days before study. The cells were rinsed once with 0.5 ml of ice-cold Buffer B [10 mM HEPES (pH 7.4), 130 mM NaCl, 5 mM KCl, 1.2 mM CaCl2, 1 mM MgCl2, 1.2 mM Na2HPO^4 5 mM glucose, and 0.1% heat-inactivated BSA] supplemented with 1 mM isobtylmethylxanthine (IBMX), and placed on ice. Treatments were added to each well in 0.25 ml of IBMX-supplemented Buffer B, after which the plates were incubated at 37° C. for 15 min. The buffer then was rapidly aspirated, the plates were rapidly transferred onto liquid nitrogen, and the frozen monolayers were subsequently thawed directly into 0.5 ml of 50 mM HCl. The extracted cAMP then was measured using a commercial RIA kit (Dupont-New England Nuclear, Boston, Mass.). Results were expressed as fold-basal, where basal levels ranged between 38 and 128 pmol/mg protein/15 min. The basal level of cAMP accumulation in native LLC-PK1 cells was not consistently altered in subclones that expressed wild type PTH/PTHrp receptors.

formation of IP3 (activation of phospholipase-C) (human PTH/PTHrP receptor; HKRK B7 cells, 30 min stimulation): 275 ± 21 percentage of vehicle-treated
formation of IP3 (activation of phospholipase-C) (human PTH/PTHrP receptor; HKRK B28 cells, 4 min stimulation): 170 ± 14 percentage of vehicle-treated
activation of AC (in words) (rat PTHR): activated AC equivalently
Substance: hPTH(1-31)
activation of PLC (in words) (human PTH/PTHrP receptor; 1000 nM, HKRK B28 at 4 min and HKRK B7 at 30 min): stimulated PLC equivalently to hPTH(1-34)
